Experimental data published in patent US20210253725A1 (BIONTECH, published 2021).

How the values were obtained:
[1] = target: T1, CD134 expressed on the cell surface of HT1080_OX40 cells (human, UniProt P43489 29-277); assay: cell-based or functional assay
T1 sequence (looked up): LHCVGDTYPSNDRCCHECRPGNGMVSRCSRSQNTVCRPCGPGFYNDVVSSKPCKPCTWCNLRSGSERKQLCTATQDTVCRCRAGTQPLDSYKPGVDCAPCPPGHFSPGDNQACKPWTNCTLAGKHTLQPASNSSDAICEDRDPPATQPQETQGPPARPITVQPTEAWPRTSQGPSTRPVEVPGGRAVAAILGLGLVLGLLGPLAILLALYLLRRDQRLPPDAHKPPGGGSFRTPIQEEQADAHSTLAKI

[2] = target: T1, CD134 expressed on the cell surface of …; assay: HT1080_OX40 cells, imaging
[3] = target: T2, CD134 protein (His-tagged, Sino Biological Inc. 10481-H08H) (human, UniProt P43489 29-216); assay: ELISA, coated His-tagged CD134
T2 construct: bought protein coated on ELISA plates; also called OX40; TNFRSF4; not shown: His tag
T2 sequence (looked up): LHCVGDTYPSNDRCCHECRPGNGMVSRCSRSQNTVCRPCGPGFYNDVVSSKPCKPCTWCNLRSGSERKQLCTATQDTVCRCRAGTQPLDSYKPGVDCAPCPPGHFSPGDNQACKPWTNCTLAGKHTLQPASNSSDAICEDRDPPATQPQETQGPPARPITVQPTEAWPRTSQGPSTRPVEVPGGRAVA
Further: test concentration or dose not given here.

| Binder | Functional assay Cross-linked by F(ab′)2 fragment IL-8 [1] [abs. corr.] | Functional assay IL-8 [1] [abs. corr.] | Cellular binding assay [RFU] [2] [RFU] | ELISA [abs. corr.] [3] [abs. corr.] |
| --- | --- | --- | --- | --- |
| P018.S.12.A.C05 (antibody, V domains shown, V regions on human Ig constant parts; also called AB134_65) VH: QSLEESGGRLVTPGTPLTLTCTASGFSLSNYYMNWVRQAPGKGLEWIGIIDKSGSAYYASWARGRFTISKTSTTVGLKIPSPTTEDTATYFCARGYGGYADHGLGLWGQGTLVTVSS VL: DVVMTQTPASVSEPVGGTVTIKCQASQSIAGWLAWYQQKPGQPPKLLIYQASKLASGVPSRFSGSGSGTEYTLTISDLESDDAATYYCQCTYGSGSGSNGFGGGTEVVVK | 1.65 | 0.228 | 494 | 2.94 |
| P018.S.12.A.A05 (antibody, V domains shown, V regions on human Ig constant parts; also called AB134_54) VH: QSLEESGGRLVTPGTPLTLTCTASGFSLSNYYINWVRQAPGKGLEWIGIIDKSGSAYYASWARGRFTISKTSTTVGLKIPSPTTEDTATYFCARGYGGYADHGLGLWGQGTLVTVSS VL: DVVMTQTPASVSEPVGGTVTIKCQASQSIAGWLAWYQQKPGQPPKLLIYQASKLASGVPSRFSGSGSGTEYTLTISDLESDDAATYYCQCTYGSASGSNGFGGGTEVVVK | 1.53 | 0.267 | 503 | 2.86 |
| P018.S.04.A.E01 (antibody, V domains shown, V regions on human Ig constant parts; also called AB134_10) VH: QSVEESGGRLVTPGTPLTLTCTASGFSLSSSWMSWVRQAPGKGLEFIGFINTGGRAFYATWASGRFTISRTSTKVDLEITSPTSEDTATYFCVRGAAGYPEYDDGDLWGQGTLVTVSS VL: AQVLTQTLSPVSAAVGGTVTINCQSSPSVYHNNWLSWFQKKPGQPPKLLIYEASKLASGVPPRFSGSGSGTQFTLTISGVQSDDAATYYCAGSFSDNIYTFGGGTAMVVK | 1.41 | 0.084 | 22 | 2.88 |
| P018.S.02.A.F03 (antibody, V domains shown, V regions on human Ig constant parts; also called AB134_2) VH: QSVEESGGRLVTPGTPLTLTCTASGFSLSRYYMSWVRQAPGKGLEWIGFINTAGSAYYASWAKGRFTISRTSTTVDLKMTSLTTEDTATYFCARDLSRFSLWGRGTLVIVSS VL: AAVLTQTPSPVSAAVGGTVTINCQASPSVYSDYLSWFQKKPGQPPKLLIYWASTLASGVPSRFSGSGSGTQFTLTISDLESDDVATYYCAGGYSGNSDNWAFGGGTDVVVK | 1.73 | 0.09 | 140 | 2.85 |
| P018.S.12.A.A04 (antibody, V domains shown, V regions on human Ig constant parts; also called AB134_53) VH: QSVEESGGRLVTPGTPLTLTCTVSGIDLSSYAMSWVRQAPGKGLEYIGIISGSGNTYYASWAKGRFTISKTSTTVDLKISSPTTEDTATYFCCRGDPSYSIDGFDPWGPGTLVTVSS VL: AAVLTQTPSPVSAAVGGTVTINCQSSQSVYNNNDLAWYQQKPGQPPKLLIYRASNLASGVPSRFSGSGSGTQFTLTISGVQSGDAATYYCLGAWDDDADTWAFGGGTEVVVE | 1.4 | -0.007 | 514 | 1.99 |

Results, then the binder that gave them:

| Functional assay Cross-linked by F(ab′)2 fragment IL-8 [1] [abs. corr.] | Functional assay IL-8 [1] [abs. corr.] | Cellular binding assay [RFU] [2] [RFU] | ELISA [abs. corr.] [3] [abs. corr.] | Binder |
| --- | --- | --- | --- | --- |
| 1.27 | -0.074 | 496 | 2.48 | P018.S.12.A.H03 (antibody, V domains shown, V regions on human Ig constant parts; also called AB134_89) VH: QSLEESRGGLVQPEGSLTLTCKASGFSFSSGYYMCWVRQAPGKGLEWIGCIYSGSDSACYASWAKGRFTISKTSSTTVTLQMTSLTVADTATYFCVRDLGDYNALSYTINLWGPGTLVTVSS VL: DVVMTQTPSSVSAAVGGTVTIKCQASQSISTNLAWYQEKAGQPPKLLIYRASTVASGVPSRFKGSGSGTQFTLTISDLESADATTYFCQCIDYDDYGGTFGGGTEVVVK |
| 1.58 | -0.114 | 0 | 0.002 | P018.S.13.A.G06 (antibody, V domains shown, V regions on human Ig constant parts; also called AB134_92) VH: QSLEESGGGLVKPGASLTLTCKASGFDLSSYYYMCWVRQAPGKGLEWIGCFYTDDSANTWYATWAKGRFTISKTSSTTVTLQMTSLTAADTATYFCARDASGWYWFNLWGPGTLVTVSS VL: AQVLTQTPSPVSAAVGGTVTISCQSSQSLHDDNALAWYQQKPGQPPKLLIYLASYLASGVPSRFKGSGSGTQFTLTISEVQSDDAATYYCQGAYSGDNNSFGGGTEVVVK |
| 1.63 | 0.355 | 497 | 2.59 | P018.S.12.A.E02 (antibody, V domains shown, V regions on human Ig constant parts; also called AB134_73) VH: QSVEESGGRLVTPGTPLTLTCTASGFTLSSYYMGWVRQAPGKGLEWIGIIYPSGSAYYATWTKGRFTISRTSTTVDLKVTGPTTEDTATYFCARSTTSSLYYGYNLWGQGTLVTVSS VL: DIVMTQTPASVEAAVGGTVTIKCQASASITNWLAWYQQKPGQPPKLLIYKASTLESGVPSRFKGSGSGTEFTLTISDLESADAASYYCQSNYGGGSDTSHTFGGGTGVVVK |
